Data set [1] is described as follows: immunocytochemistry of internalised VEGFR2, BSA vs VEGF. To be noted: glycan lost; control: ∆21-121 EMCN.
A short description of data set [2]: cell surface biotinylation, VEGFR2 western blot, hEMCN knockdown HRECs. Particulars: glycan lost; control: ∆21-121 EMCN. Background: A western blot detects proteins with antibodies after separation by electrophoresis.

B1: mouse EMCN (mEMCN, endomucin): N-Mut (protein)
parent chain: MRLLQATVLFFLLSNSLCHSEDGKDVQNDSIPTPAETSTTKASVTIPGIVSVTNPNKPADGTPPEGTTKSDVSQTSLVTTINSLTTPKHEVGTTTEGPLRNESSTMKITVPNTPTSNANSTLPGSQNKTENQSSIRTTEISVTTQLLDALPKITATSSASLTTAHTMSLLQDTEDRKIATTPSTTPSYSSIILPVVIALVVITLLVFTLVGLYRICWKRDPGTPENGNDQPQSDKESVKLLTVKTISHESGEHSAQGKTKN
As for B1, the “other: rescue of VEGF-induced VEGFR2 internalisation, other: VEGFR2-positive pixels per cell” value in data set [1] is given as “abolishes”. Also, the “other: rescue of VEGF-induced VEGFR2 internalisation” value in data set [2] is recorded as “abolishes”.

These data come from article PMC7349057.
